Values quoted from earlier work, collected in patent US8536148B2, “Disabling autophagy as a treatment for lysosomal storage diseases” (The United States of America, as Represented by the …, priority 2009, dated 2013).

Test system: Hunter syndrome patients
[1] = from baseline, both dosing regimens

B1: idursulfase: recombinant human I2S produced in a human cell line, approved for Hunter syndrome (protein, UniProt P22304 34-455; P22304 456-550, looked up)
Iduronate 2-sulfatase 42 kDa …: TDALNVLLIIVDDLRPSLGCYGDKLVRSPNIDQLASHSLLFQNAFAQQAVCAPSRVSFLTGRRPDTTRLYDFNSYWRVHAGNFSTIPQYFKENGYVTMSVGKVFHPGISSNHTDDSPYSWSFPPYHPSSEKYENTKTCRGPDGELHANLLCPVDVLDVPEGTLPDKQSTEQAIQLLEKMKTSASPFFLAVGYHKPHIPFRYPKEFQKLYPLENITLAPDPEVPDGLPPVAYNPWMDIRQREDVQALNISVPYGPIPVDFQRKIRQSYFASVSYLDTQVGRLLSALDDLQLANSTIIAFTSDHGWALGEHGEWAKYSNFDVATHVPLIFYVPGRTASLPEAGEKLFPYLDPFDSASQLMEPGRQSMDLVELVSLFPTLAGLAGLQVPPRCPVPSFHVELCREGKNLLKHFRFRDLEEDPYLPG
Iduronate 2-sulfatase 14 kDa …: NPRELIAYSQYPRPSDIPQWNSDKPSLKDIKIMGYSIRTIDYRYTVWVGFNPDEFLANFSDIHAGELYFVDSDPLQDHNMYNDSQGGDLFQLLMP
- Liver and spleen volumes [1]: significantly reduced from baseline
- Urine GAG excretion [1]: significantly reduced from baseline
- Tolerability (human, in vivo): generally well tolerated
- Clinical improvement vs placebo (patients with Hunter syndrome): statistically significant improvement rate compared with placebo
